From paper PMC5613346 (Biochemistry and Biophysics Reports, 2016) come the findings set out here.

The target in experiment [1] is T1, mouse wtTNF (mouse), P06804.
T1 chain: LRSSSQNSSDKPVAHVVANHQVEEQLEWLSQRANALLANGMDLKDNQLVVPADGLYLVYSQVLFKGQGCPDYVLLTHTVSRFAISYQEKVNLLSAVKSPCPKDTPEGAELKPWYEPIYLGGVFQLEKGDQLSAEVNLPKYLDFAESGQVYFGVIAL
In words: SEC. Particulars: remark: other sources report otherwise.

Another experiment addresses T2, mTNFR1 Fc chimera (mouse, UniProt P25118).
T2 sequence: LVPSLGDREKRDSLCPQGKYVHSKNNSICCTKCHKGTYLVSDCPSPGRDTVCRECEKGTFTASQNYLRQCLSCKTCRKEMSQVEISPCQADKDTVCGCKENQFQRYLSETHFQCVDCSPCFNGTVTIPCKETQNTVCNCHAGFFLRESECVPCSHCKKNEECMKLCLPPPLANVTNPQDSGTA
In words: SPR. Background: In SPR one partner is held on a chip, and binding of the other changes the refractive index at the surface.

Another experiment deals with T3, mTNFR2 Fc chimera (mouse, UniProt P25119).
T3 sequence: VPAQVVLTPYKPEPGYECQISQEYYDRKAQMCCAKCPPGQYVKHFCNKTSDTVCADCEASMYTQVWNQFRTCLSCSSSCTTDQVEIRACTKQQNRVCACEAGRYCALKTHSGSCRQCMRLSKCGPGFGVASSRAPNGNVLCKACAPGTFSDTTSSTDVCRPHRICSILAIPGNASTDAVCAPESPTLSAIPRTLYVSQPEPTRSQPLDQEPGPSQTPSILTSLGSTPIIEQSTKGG
In words: SPR.

B1: mouse wtTNF (ligand)
chain: T1 chain
Broadly, the stoichiometry N is the number of molecules, sites or subunits per partner or assembly. For orientation: Kd means the free concentration of one partner at which half of the binding sites on the other are occupied at equilibrium, for simple one-to-one binding. Read a high Kd as weaker binding. Usually koff stands for the first-order rate constant of dissociation. A low value points to a long-lived complex. What is called kon is the second-order rate constant of association. Turning to B1, the stoichiometry N in experiment [1] is 3. In the experiment with mTNFR1 Fc chimera, this molecule came in with a Kd of 5.84 nM, a koff of 0.000969 s⁻¹ and a kon of 166000 M⁻¹ s⁻¹. In addition, in the experiment with mTNFR2 Fc chimera, binding was put at a Kd of 10.4 nM, the off-rate (koff) was 0.0056 s⁻¹ and the kon was found to be 537000 M⁻¹ s⁻¹.
